# According to patent US7446182 (University of Texas, dated 2008):
# How the values were obtained:
# [1] = molecular target: T1, Bacillus anthracis protective antigen (PA), 83 kDa polypeptide (Bacillus anthracis, UniProt P13423 30-764); test: SPR
# [2] = molecular target: T1, Bacillus anthracis protective antigen …; test: SPR, PA immobilized on CM5 chip
# T1 sequence (P13423 30-764 limits assumed): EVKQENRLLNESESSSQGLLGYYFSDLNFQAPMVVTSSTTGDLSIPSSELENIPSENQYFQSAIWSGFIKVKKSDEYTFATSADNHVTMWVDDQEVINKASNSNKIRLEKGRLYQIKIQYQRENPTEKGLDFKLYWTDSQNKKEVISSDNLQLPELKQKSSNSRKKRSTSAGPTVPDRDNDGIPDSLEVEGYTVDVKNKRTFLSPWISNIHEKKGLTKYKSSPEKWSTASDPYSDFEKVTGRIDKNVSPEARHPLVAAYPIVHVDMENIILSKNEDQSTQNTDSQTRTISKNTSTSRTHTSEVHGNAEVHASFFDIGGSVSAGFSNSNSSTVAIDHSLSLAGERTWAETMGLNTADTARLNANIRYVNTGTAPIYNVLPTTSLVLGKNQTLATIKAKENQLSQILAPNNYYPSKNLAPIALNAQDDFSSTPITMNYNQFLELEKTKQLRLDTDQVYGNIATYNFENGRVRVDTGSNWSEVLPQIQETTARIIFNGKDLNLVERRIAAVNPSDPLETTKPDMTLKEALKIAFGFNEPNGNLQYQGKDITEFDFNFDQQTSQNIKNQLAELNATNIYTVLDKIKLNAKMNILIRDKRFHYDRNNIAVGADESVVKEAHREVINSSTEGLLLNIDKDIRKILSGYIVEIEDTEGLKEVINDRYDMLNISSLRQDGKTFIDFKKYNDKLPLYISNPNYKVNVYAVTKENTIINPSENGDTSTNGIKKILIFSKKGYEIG
binder,measurement,setting,value
1H scFv (scFv) scFv: DIQMTQTTSSLSASLGDRVTISCRASQDIRNYLNWYQQKPDGTVKLLIYYTSRLLPGVPSRFSGSGSGTDYSLTISNQEQEDIGTYFCQQGNTLPWTGFFFTKLEIRRGGGGSGGGGSGGGGSGGGGSEVQLQQSGPELVKPGASVKISCKIDSGYAFSSSWMNWVKQRFGQGLEWIGRIYPGDGDTNYNGKFKGKATLTADKSSSTAYMQLSSLTSVDSAVYFCARSGLLRYAMDYWGQGTSVTVSS,Kd,[1],0.25 nM
same,fold lower equilibrium dissociation constant than 14B7,[1],48 fold
same,Kd,[2],0.24 nM
same,koff,[2],0.00017 s⁻¹
same,kon,[2],720000 M⁻¹ s⁻¹
